We go through 2 substances from paper doi:10.1101/226712.

This experiment addresses ClpXP (ClpX6P14) with Cy3-labeled ClpPQ48C, immobilized through biotinylated ClpX6 (Escherichia coli) (UniProt P0A6H1). Description: single-molecule TIRF fluorescence with alternating laser excitation.

For the substance “Titin-I27 V13P with the C-terminal ssrA tag, Cy5-labeled at Cys (domain or fragment)”, the total dwell time (Δτ, bound and processed) turned out to be 7.3 s.
To “Titin-I27 wild-type with the C-terminal ssrA tag, Cy5-labeled at Cys (domain or fragment)” belongs 7.5 s.
